Read-outs that look alike come from different tables or passages of the source.
T1: human CTLA4 (construct not stated) (human, UniProt P16410 36-161, limits assumed)
T1 sequence (looked up): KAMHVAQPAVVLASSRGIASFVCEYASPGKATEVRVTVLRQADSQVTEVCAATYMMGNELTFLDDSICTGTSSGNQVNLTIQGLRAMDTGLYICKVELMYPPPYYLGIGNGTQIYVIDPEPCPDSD

T2: human CTLA4 on hCTLA4-293T cells (human, UniProt P16410 36-223)
T2 construct: whole, on cells
T2 sequence (looked up): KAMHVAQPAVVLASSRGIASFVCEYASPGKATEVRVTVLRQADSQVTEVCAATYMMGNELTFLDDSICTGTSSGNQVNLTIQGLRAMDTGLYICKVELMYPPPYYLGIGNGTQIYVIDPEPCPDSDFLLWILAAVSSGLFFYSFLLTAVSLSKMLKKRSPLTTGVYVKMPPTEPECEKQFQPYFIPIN


What was measured:
human CTLA4-mFc [1] = target: T3, human CTLA4-mFc (human); test: ELISA blockage of biotinylated CD80-mFc binding to coated human CTLA4-mFc
T3 construct: Extracellular domain of human CTLA4 fused with mouse Fc; also called hCTLA4-mFc
Method: ELISA based ligand blockage analysis was conducted via blocking biotinylated human CD80-mFc from binding to human CTLA4-mFc. CTLA4-mFc antigen (CrownBio) was suspended in PBS (Hyclone, Cat No: SH30256.01B) buffer (2 μg/ml, 100 μl/well) and coated on the 96 well plate (Costar, Cat No: 9018) 4° C. overnight. Plates were washed 3 times using washing buffer: PBS+0.05% Tween 20 (Sigma, Cat No: P1379). 200 μl of blocking buffer (PBS+1% BSA (Roche, Cat No: 738328)) was added to each well, incubated at 37° C. for 1 hour, and washed 3 times. Various concentrations (suitable dilutions of hybridoma supernatant in PBS) of the anti-CTLA4 antibodies were added to the wells (100 μl/well) and incubated at 37° C. for 1 hour. Ligand was added (0.1 μg/ml CD80-mFc-biotin, 100 μl/well), incubated at 37° C. for 2 hours, and washed 3 times. […] The colorimetric signals were developed and read at 450 nm using an Auto Plate SpectraMax Plus (Supplier: Molecular Devices; Model: MNR0643; Software: SoftMax Pro v5.4).
After generation and purification of humanized 6F3-hIgG1 and 10B10-hIgG1 antibodies, the binding and specificity of the antibodies were determined using ELISA-based binding and CTLA4/CD80 blockage analyses, as well as FACS-based binding and CTLA4/CD80 blockage analyses. […]

[2] = target: T1, human CTLA4 (construct not stated); test: SPR (Biacore 3000), capture method as in Example 5, CTLA4 as analyte
Method: (§1) To further characterize the binding characteristics of the antibodies, the hybridoma antibodies were profiled using Biacore (Biacore 3000, GE) to elucidate binding kinetics and calculate equilibrium binding constants. This assay was performed by capture method, using the mouse antibody capture kit (BR-1008-38, GE). After diluting anti-mouse Fc mab to 25 μg/ml in pH 5.0 immobilization buffer, immobilization was conducted with the parameters shown in Table 9 at a flow rate of 5 μl/min. The kinetic runs were done by 1) injecting ligand for typical 0.5-1 min at flow rate of 10 μl/min.; 2) injecting analytes of choice for typical 3 min followed by dissociation in running buffer (1×PBS-P20) for typical 5-10 min at flow rate of 30 μl/min.; and 3) injecting regeneration solution 10 mM Glycine pH 1.7 for typical 1-2 min at flow rate of 10 μl/min.
The binding kinetics between CTLA4 and humanized CTLA4 antibodies were measured by Biacore3000 as described in Example 5. The dissociation constant, KD, was calculated from the determined rate constants by the relation KD=kd/ka.

[3] = target: T2, human CTLA4 on hCTLA4-293T cells; test: FACS on hCTLA4-293T cells, humanized antibody
Method: (§2) The cells were incubated with the indicated antibody (20 μg/ml with the dilution of 1/5) at 4° C. for 1 hour. Cells were washed three times with FACS buffer. A secondary antibody (PE Goat anti-mouse: 1:200; PE mouse anti-human: 1:10) was added to the cells at 100 μl/well, and incubated at 4° C. for 40 min. Cells were washed three times with FACS buffer and analyzed by FACS Array.
(§3) After generation and purification of humanized 6F3-hIgG1 and 10B10-hIgG1 antibodies, the binding and specificity of the antibodies were determined using ELISA-based binding and CTLA4/CD80 blockage analyses, as well as FACS-based binding and CTLA4/CD80 blockage analyses. The methods used were similar to those described above in EXAMPLE 4.

[4] = target: T2, human CTLA4 on hCTLA4-293T cells; test: FACS blockage of biotinylated human CD80 binding to hCTLA4-293T cells
Method: (§4) Various concentrations of the testing hybridoma antibodies were added to the cell suspension and incubated at 4° C. for 60 minutes in 96 well plates. Biotin-labeled CD80 protein was added into the wells and incubated at 4° C. for 60 minutes. […] Flow cytometric analyses were performed using a FACS Array.
as §3

human CTLA4-hFc [5] = target: T4, human CTLA4-hFc (human); test: ELISA, humanized antibody on coated human CTLA4
T4 construct: Extracellular domain of human CTLA4 fused with a human Fc tag; also called hCTLA4-hFc

[6] = target: T2, human CTLA4 on hCTLA4-293T cells; test: FACS blockage of biotinylated human CD80 binding to hCTLA4-293T cells; remark: listed apart in the source
Method: as §4
(§5) The purified hybridoma antibodies were characterized further based on ELISA and FACS analyses. The methods applied were similar to those described above in Example 2 except that in these cases, purified antibodies were used to measure EC50 and IC50.

human CTLA4-hFc [7] = target: T4, human CTLA4-hFc; test: ELISA, purified murine antibody on coated human CTLA4-hFc
Method: ELISA binding analysis was conducted using human CTLA4-hFc. 96-well plates (Costar, Cat No: 9018) were coated with 100 μl of 2 μg/ml CTLA4-hFc (CrownBio) in coating buffer (PBS, Hyclone, Cat No: SH30256.01B) overnight at 4° C. The wells were aspirated and non-specific binding sites were blocked by adding 200 μl of blocking buffer with 1% (w/v) of bovine serum albumin (BSA, Roche, Cat No: 738328) and incubating for 1 hour at 37° C. After the plates are washed three times with wash buffer (PBS with 0.05% (v/v) TWEEN-20™ (Sigma, Cat No: P1379)), 100 μl/well of a suitable dilutions of hybridoma supernatant in blocking buffer were added and incubated at room temperature for 1 hour. The plates were washed and incubated with 100 μl/well of Goat anti-Mouse IgG (H+L) (Thermo, Cat No: 31432) in blocking buffer for 60 min. After the plates were washed, 100 μl/well of substrate solution TMB (eBioscience, Cat No: 00-4201-56) was added and the plates were incubated for 2 min at room temperature. 100 μl/well of stop solution (2N H₂SO₄) was added to stop the reaction. The colorimetric signals were developed and read at 450 nm using a Auto Plate SpectraMax Plus (Supplier: Molecular Devices; Model: MNR0643; Software: SoftMax Pro v5.4). Through this method, hybridoma cell lines that produce antibodies highly specifically binding to the human CTLA4 protein were repeatedly selected. […]

[8] = target: T2, human CTLA4 on hCTLA4-293T cells; test: FACS on hCTLA4-293T cells, purified murine antibody
Method: as §2, §5

mouse CTLA4 = mouse CTLA4 (mouse, UniProt P09793 36-161, limits assumed); test: protein based ELISA and other assays, not named
human CTLA4-mFc [9] = target: T3, human CTLA4-mFc; test: ELISA blockage of biotinylated CD80-mFc binding to coated human CTLA4-mFc; remark: listed apart in the source
Method: ELISA based ligand blockage analysis was conducted via blocking biotinylated human CD80-mFc from binding to human CTLA4-mFc. CTLA4-mFc antigen (CrownBio) was suspended in PBS (Hyclone, Cat No: SH30256.01B) buffer (2 μg/ml, 100 μl/well) and coated on the 96 well plate (Costar, Cat No: 9018) 4° C. overnight. Plates were washed 3 times using washing buffer: PBS+0.05% Tween 20 (Sigma, Cat No: P1379). 200 μl of blocking buffer (PBS+1% BSA (Roche, Cat No: 738328)) was added to each well, incubated at 37° C. for 1 hour, and washed 3 times. Various concentrations (suitable dilutions of hybridoma supernatant in PBS) of the anti-CTLA4 antibodies were added to the wells (100 μl/well) and incubated at 37° C. for 1 hour. Ligand was added (0.1 μg/ml CD80-mFc-biotin, 100 μl/well), incubated at 37° C. for 2 hours, and washed 3 times. Secondary antibody (Avidin HRP, eBioscience Cat No: E07418-1632, 1:500, 100 μl/well) was added, incubated at 37° C. for 0.5 hour, and washed 3 times. TMB (Sigma, Cat No: T0440, 100 μl/well) was added, and incubated for 3 min at room temperature. To stop the reaction, 2N H₂SO₄ (100 μl/well), was added. The colorimetric signals were developed and read at 450 nm using an Auto Plate SpectraMax Plus (Supplier: Molecular Devices; Model: MNR0643; Software: SoftMax Pro v5.4).
The purified hybridoma antibodies were characterized further based on ELISA and FACS analyses. […]

[10] = target: T1, human CTLA4 (construct not stated); test: SPR (Biacore 3000), antibody captured by anti-mouse Fc mAb, CTLA4 as analyte
Method: as §1

IC50 (human CTLA4-mFc [1]) [µg/mL]	Kd [2] [pM]	koff [2] [s⁻¹]	kon [2] [M⁻¹ s⁻¹]	EC50 [3] [µg/mL]	IC50 [4] [µg/mL]	EC50 (human CTLA4-hFc [5]) [µg/mL]	IC50 [6] [µg/mL]	EC50 (human CTLA4-hFc [7]) [µg/mL]	EC50 [8] [µg/mL]	binding result (mouse CTLA4)	IC50 (human CTLA4-mFc [9]) [µg/mL]	Kd [10] [pM]	koff [10] [s⁻¹]	kon [10] [M⁻¹ s⁻¹]	Binder
–	–	–	–	–	–	–	0.511	0.0127	0.305	no binding	0.594	219	0.000152	693000	10B10 murine (antibody, V domains shown, Mouse monoclonal antibody purified from hybridoma supernatant on Protein G; also called murine antibody 10B10; anti-CTLA4 hybridoma antibody 10B10) VH: DVQLQESGPGLVTPSQSLSLTCSVTGYSITSGYSWNWIRQFPGNKLEWMGYIRFDGNNNYNPFLKNRISITRDTSENQFFLKLNSVTTEDTATYYCARNYGTWGAMDFWGQGTSVTVSS VL: DIVLTQSPSSLSASLGGKVTITCKTSQDINKYMAWYQHKPGKGPRLLIYYTSILQPGIPSRFSGSGSGTDYSFSINNLEPEDIATYYCQQYDNLNTFGGGTMLEIK
0.285	273	0.000113	414000	5.28	0.0253	0.00293	–	–	–	–	–	–	–	–	10B10 humanized (antibody, human IgG1, kappa, V domains shown, Humanized IgG1, expressed in Freestyle 293 cells; also called h10B10-IgG1; humanized 10B10-hIgG1) VH: QVQLQESGPGLVKPSQTLSLTCAVSGYSITSGYSWNWIRQPPGKGLEWMGYIRFDGNNNYNPFLKNRITISRDTSKNQFSLKLSSVTAADTAVYYCARNYGTWGAMDFWGQGTLVTVSS VL: DIQLTQSPSSLSASVGDRVTITCKTSQDINKYMAWYQQKPGKAPKLLIYYTSILQPGVPSRFSGSGSGTDYTFTISSLQPEDIATYYCQQYDNLNTFGGGTKVEIKR

Continued, binder first:

Binder	IC50 (human CTLA4-mFc [1]) [µg/mL]	Kd [2] [pM]	koff [2] [s⁻¹]	kon [2] [M⁻¹ s⁻¹]	EC50 [3] [µg/mL]	IC50 [4] [µg/mL]	EC50 (human CTLA4-hFc [5]) [µg/mL]	IC50 [6] [µg/mL]	EC50 (human CTLA4-hFc [7]) [µg/mL]	EC50 [8] [µg/mL]	binding result (mouse CTLA4)	IC50 (human CTLA4-mFc [9]) [µg/mL]	Kd [10] [pM]	koff [10] [s⁻¹]	kon [10] [M⁻¹ s⁻¹]
6F3 humanized (antibody, human IgG1, kappa, V domains shown, Humanized IgG1, expressed in Freestyle 293 cells; also called h6F3-IgG1; humanized 6F3-hIgG1) VH: QVQLVQSGAEVKKPGSSVKVSCKASGYTFTDYEMHWVRQAPGQGLEWIGVIDPETGGITYNQKFKGRATLTADKSTSTAYMELSSLRSEDTAVYYCTRRGARATVYNYVMDYWGQGTLVTVSS VL: DIQMTQSPSSLSASVGDRVTITCRASENIHNYLAWYQQKPGKAPKLLVYNAKTLGDGVPSRFSGSGSGTDYTLTISSLQPEDFATYYCQHFWSTPWTFGGGTKVEIKR	0.295	441	0.00013	295000	2.33	0.435	0.00201	–	–	–	–	–	–	–	–
6F3 murine (antibody, V domains shown, Mouse monoclonal antibody purified from hybridoma supernatant on Protein G; also called murine antibody 6F3; anti-CTLA4 hybridoma antibody 6F3) VH: QVKLQESGAELVRPGASVTLSCKASGYTFTDYEMHWMKQTPVHGLEWIGVIDPETGGITYNQKFKGKATLTADKSSSTAYMEFLSLTSEDSAVYYCTRRGARATVYNYVMDYWGQGTSVTVSS VL: DIVMTQTTASLSASVGETVTITCRASENIHNYLAWYQQKQGRSPQLLVYNAKTLGDGVPSRFSGSGSGTQYSLKINSLQPEDFGSYYCQHFWSTPWTFGGGTKLEIK	–	–	–	–	–	–	–	0.526	0.025	1.18	no binding	0.526	409	0.000244	598000
